# From patent US20210363269A1 (ALX ONCOLOGY, published 2021)
# T1: NOD mouse SIRP-α (mouse (NOD strain))
# T1 chain: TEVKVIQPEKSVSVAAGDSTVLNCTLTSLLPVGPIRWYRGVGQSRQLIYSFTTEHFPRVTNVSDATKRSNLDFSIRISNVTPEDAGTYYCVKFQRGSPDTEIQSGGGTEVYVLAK
# T2: BALBc mouse SIRP-α (mouse (BALB/c strain))
# T2 chain: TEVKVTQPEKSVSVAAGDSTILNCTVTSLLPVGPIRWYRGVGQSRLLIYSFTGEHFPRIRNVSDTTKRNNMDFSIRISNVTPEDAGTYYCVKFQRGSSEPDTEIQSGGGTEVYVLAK
# T3: BL6 mouse SIRP-α (mouse (C57BL/6 strain), UniProt P97797 32-148)
# T3 construct: also called C57BL/6
# T3 sequence: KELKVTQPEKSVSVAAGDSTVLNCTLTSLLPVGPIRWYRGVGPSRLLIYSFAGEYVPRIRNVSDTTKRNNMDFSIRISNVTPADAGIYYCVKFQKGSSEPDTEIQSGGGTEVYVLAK
# Legend:
# NOD mouse SIRP-α = biological target: T1, NOD mouse SIRP-α; test: SPR, antibody on GLC chip
# Procedure, shortened: (§1)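 SIRP analytes were run over antibody surfaces in PBS pH 7.4 with 0.01% Tween-20 at 25° C, using one-shot injections at 100, 33, 11, 3.7, 1.2 and 0 nM. The antibodies, purified by Protein A, had been amine-coupled (~1000 RU) to a GLC chip of a ProteOn XPR36 biosensor from an 80 nM solution in 10 mM sodium acetate pH 4.5. Association lasted 90 s at a flow of 100 μL/min, and dissociation lasted 1200 s. KD equals kd/ka, obtained by fitting double-referenced data globally to a Langmuir model.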
# BALBc mouse SIRP-α = biological target: T2, BALBc mouse SIRP-α; test: SPR, antibody on GLC chip
# Procedure, shortened: as §1
# human SIRP-α v1 [1] = biological target: T4, human SIRP-α v1 (human, UniProt P78324 31-149); test: SPR, antibody on GLC chip
# T4 construct: also called Human v1; Human V1
# Procedure, shortened: as §1
# human SIRP-α v2 [2] = biological target: T5, human SIRP-α v2 (human); test: SPR, antibody on GLC chip
# T5 construct: also called Human v2; Human V2
# Procedure, shortened: as §1
# human SIRPβ isoform 1 [3] = biological target: T6, human SIRPβ isoform 1 (human, UniProt O00241 30-148); test: SPR, antibody on GLC chip
# T6 construct: also called Beta; Human SIRPb
# Procedure, shortened: as §1
# BL6 mouse SIRP-α = biological target: T3, BL6 mouse SIRP-α; test: SPR, antibody on GLC chip
# Procedure, shortened: as §1
# human SIRPγ isoform 1 = biological target: T7, human SIRPγ isoform 1 (human, UniProt Q9P1W8 29-147); test: SPR, antibody on GLC chip; fitted KD (M) in Table Q; weak binding, 23.9 nM
# T7 construct: also called Gamma; Human SIRPg
# Method: All experiments were performed at 25° C. using a SPR-based ProteOn XPR36 biosensor (BioRad, Inc, Hercules, Calif.) equipped with GLC or NLC sensor chips. […] Purification was carried out by standard Protein A affinity column chromatography and eluted antibodies were stored in PBS buffer.
# For the method using GLC chip, the analytes were injected and flowed over anti-SIRPα antibodies immobilized (˜1000 RUs) on GLC chips using Proteon™ Amine Coupling Kit. For the immobilization step, GLC chip was activated with EDAC/Sulpho-NHS 1:1 (Biorad) diluted 1/100 for 300 s at 25 μL/min. Anti-SIRPα antibodies were diluted to 80 nM concentration in 10 mM sodium acetate buffer pH 4.5 and immobilized to the chip at 30 μL/min for 50 s. Chip was inactivated with ethanolamine for 300 s at 25 μL/min. The analytes (e.g., SIRP-α from different species, SIRP-β, SIRP-γ) were injected in a “one-shot” kinetic mode at nominal concentrations of 100, 33, 11, 3.7, 1.2 and 0 nM. Association times were monitored for 90 s at 100 μL/min, and dissociation times were monitored for 1200 s. The surfaces were regenerated with a 2:1 v/v blend of Pierce IgG elution buffer/4M NaCl.
# human SIRP-α v1 [4] = biological target: T4, human SIRP-α v1; test: SPR
# Procedure, shortened: (§2)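 Runs took place at 25° C in PBS pH 7.4 containing 0.01% Tween-20 on a ProteOn XPR36 biosensor, with purified antibodies either amine-coupled to a GLC chip or captured through biotinylated Protein A on an NLC chip. SIRP analytes went in by one-shot kinetic injection at nominal concentrations based on A280 absorbance. Apparent rate constants came from a global simple Langmuir fit of double-referenced data, and KD was calculated as kd/ka.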
# human SIRP-α v2 [5] = biological target: T5, human SIRP-α v2; test: SPR
# Procedure, shortened: as §2
# human SIRPβ isoform 1 [6] = biological target: T6, human SIRPβ isoform 1; test: SPR Koff +/-
# Procedure, shortened: as §2
# human SIRP-α v1 [7] = biological target: T4, human SIRP-α v1; test: SPR; fitted KD column of Table P
# Procedure, shortened: as §2
# human SIRP-α v1 [8] = biological target: T4, human SIRP-α v1; test: SPR Koff +/-
# Procedure, shortened: as §2
# T4 sequence (P78324 31-149 limits assumed): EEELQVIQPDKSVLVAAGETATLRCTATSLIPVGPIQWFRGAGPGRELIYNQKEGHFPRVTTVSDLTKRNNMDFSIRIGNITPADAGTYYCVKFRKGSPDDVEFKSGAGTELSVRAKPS
# T6 sequence (O00241 30-148 limits assumed): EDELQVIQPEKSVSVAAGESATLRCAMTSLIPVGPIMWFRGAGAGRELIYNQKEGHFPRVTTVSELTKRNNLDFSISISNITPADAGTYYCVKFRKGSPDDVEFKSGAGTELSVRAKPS
# T5 sequence (chain, as listed by the source limits assumed): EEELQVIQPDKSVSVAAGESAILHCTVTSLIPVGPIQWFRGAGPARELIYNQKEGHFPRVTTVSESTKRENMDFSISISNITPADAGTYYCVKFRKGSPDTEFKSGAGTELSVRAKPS
# T7 sequence (Q9P1W8 29-147 limits assumed): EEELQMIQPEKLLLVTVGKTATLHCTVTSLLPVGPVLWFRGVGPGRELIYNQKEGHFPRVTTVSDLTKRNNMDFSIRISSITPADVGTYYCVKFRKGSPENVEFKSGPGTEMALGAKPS
binder,measurement,setting,value
"antibody 136 (antibody, V domains shown, also called AB136; S136) VH: not shown VL: ETVLTQSPGTLTLSPGERATLTCRASQSVYTYLAWYQEKPGQAPRLLIYGASSRATGIPDRFSGSGSGTEFTLTISSLQSEDFAVYYCQQYYDRPPLTFGGGTKVEIK",Kd,NOD mouse SIRP-α,0.554 nM
same,Kd,BALBc mouse SIRP-α,0.35 nM
same,Kd,human SIRP-α v1 [1],0.458 nM
same,Kd,human SIRP-α v2 [2],1.63 nM
same,Kd,human SIRPβ isoform 1 [3],4.35 nM
same,Kd,BL6 mouse SIRP-α,12.7 nM
same,Kd,human SIRPγ isoform 1,23.9 nM
same,Kd,human SIRP-α v1 [4],0.458 nM
same,Kd,human SIRP-α v2 [5],3.22 nM
"antibody 213 (antibody, V domains shown, also called S213) VH: DVQLVESGGGVVRPGESLRLSCEASGFTFRNYYMTWVRQAPGEGLEWVSTISDTGDTAYYADSVKGRFTISRDNSKNSLYLQMNSLRADDTAIYYCAKSWIWWTFFDYWGLGTLVTVSS VL: ALTQPASVSANLGGTVEITCSGGNSNHYGWYQQKSPGSAPVTLIYADTNRPSNIPSRFSGSTSGSTTTLTITGVQAEDEAVYYCGGSSTGDGIFGAGTTLTVL",binding result,human SIRPβ isoform 1 [6],no binding
same,Kd,human SIRP-α v1 [7],6.05 nM
same,Kd,human SIRP-α v2 [5],1.69 nM
"antibody 214 (antibody, V domains shown, also called S214) VH: DVQLVESEGGVVRPGESLRLSCEASGFTFRNSYMTWVRQAPGEGLEWVSTISDTGDTAYYADSVKGRFTISRDNSKNSLYLQMNSLRAEDTAIYYCAKSWIWWTFFDYWGLGTLVTVSS VL: ALTQPASVSANLGGTVEITCSGGNSNHYGWYQQKSPGSAPVTLIYADTNRPSNIPSRFSGSTSGSTSTLTITGVQAEDEAVYYCGGSSTGDGIFGAGTTLTVL",binding result,human SIRP-α v1 [8],no binding
same,binding result,human SIRPβ isoform 1 [6],no binding
